Values of other authors as cited in PMC5711038.

Biological target: Fbxw7 substrate receptor (Homo sapiens) (UniProt Q969H0)
Test: FRET

UniProt Q969H0, sequence (Q969H0 whole entry): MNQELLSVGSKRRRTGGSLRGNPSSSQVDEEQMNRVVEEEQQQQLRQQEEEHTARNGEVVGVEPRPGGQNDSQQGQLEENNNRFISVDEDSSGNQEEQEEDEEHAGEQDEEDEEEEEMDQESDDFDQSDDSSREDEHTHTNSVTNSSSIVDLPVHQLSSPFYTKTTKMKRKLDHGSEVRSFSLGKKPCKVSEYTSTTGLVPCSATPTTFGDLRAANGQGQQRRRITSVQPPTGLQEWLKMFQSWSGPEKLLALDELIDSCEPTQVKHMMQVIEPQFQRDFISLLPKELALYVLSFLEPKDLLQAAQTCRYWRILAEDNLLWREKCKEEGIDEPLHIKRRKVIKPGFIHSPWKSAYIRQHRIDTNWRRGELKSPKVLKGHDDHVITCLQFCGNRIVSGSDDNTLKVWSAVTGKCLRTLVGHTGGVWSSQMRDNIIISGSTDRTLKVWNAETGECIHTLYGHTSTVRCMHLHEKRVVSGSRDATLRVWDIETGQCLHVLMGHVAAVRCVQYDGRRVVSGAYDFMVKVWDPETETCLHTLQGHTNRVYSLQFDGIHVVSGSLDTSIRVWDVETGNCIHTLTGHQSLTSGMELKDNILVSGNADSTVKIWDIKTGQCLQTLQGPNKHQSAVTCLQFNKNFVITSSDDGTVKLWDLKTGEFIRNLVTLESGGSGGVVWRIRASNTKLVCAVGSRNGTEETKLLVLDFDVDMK

Which Kd does the source give for Cul1 (from UniProt Q13616) here?
The Kd was 1 pM.
